According to US20230295310A1 (ABCELLERA BIOLOGICS, published 2023):

Assays:
[1] = biological target: T1, human CD3e/d (human, UniProt P07766 23-126; P04234 22-105); assay: SPR (Carterra LSA), mAb on chip
T1 construct: Bought soluble protein; also called hCD3e/d; human CD3/ed (Sino CT038-H2508H)
How it was run: (§1)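 Purified mAbs amine-coupled (EDC/S-NHS) at 10 μg/mL in 10 mM NaOAc pH 4.25 onto an HC-30M chip, with benchmark and negative-control mAbs; analyte flowed over the array. Double-referenced sensorgrams fitted globally to a 1:1 Langmuir model for ka, kd and KD.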

[2] = biological target: T2, human CD3e/g (human, UniProt P07766 23-126; P09693 23-116); assay: SPR (Carterra LSA), mAb on chip
T2 construct: Bought soluble protein; also called hCD3e/g; human CD3e/g (Acro CDD-C52W4)
T2 sequence (P07766 23-126, chain 1 of 2): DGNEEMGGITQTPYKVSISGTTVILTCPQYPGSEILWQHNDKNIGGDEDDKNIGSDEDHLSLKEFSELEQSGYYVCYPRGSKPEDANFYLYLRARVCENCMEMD
T2 sequence (P09693 23-116, chain 2 of 2): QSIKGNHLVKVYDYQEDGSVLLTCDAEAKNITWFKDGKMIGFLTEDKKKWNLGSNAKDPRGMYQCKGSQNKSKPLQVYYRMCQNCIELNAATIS
How it was run: as §1

T1 sequence (P07766 23-126, chain 1 of 2): as the sequence (P07766 23-126, chain 1 of 2) above
T1 sequence (P04234 22-105, chain 2 of 2): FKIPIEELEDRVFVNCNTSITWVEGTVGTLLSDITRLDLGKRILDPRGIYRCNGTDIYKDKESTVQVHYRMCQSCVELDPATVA

| Binder | Kd [1] [nM] | Kd [2] [nM] |
| --- | --- | --- |
| mAb 210 (antibody, V domains shown, VH and VL only) VH: QVQLVESGGGVVQPGRSLRLSCAASGFTFSGYGMHWVRQAPGKGLEWLAIIYYNGNNRKYADSVKGRFTISRDNSKNTVSLQMNSLRVEDTAMYYCTRGDGYNWFVTWGQGTLVTVSS VL: EIVMTQSPATLSVSPGERAALSCRASQSVTSNLAWYHQKPGQAPRLLIYGASTRATGIPVRFSGSGSGTEFTLTISSLQSEDFAVYYCQQYNNWPLTFGGGTKVENK | 120 | 59 |
| mAb 195 (antibody, V domains shown, VH and VL only) VH: QEQLVESGGGVVQSGRSLRLSCVASGFKFSGYGMHWVRQAPGKGLEWVAIIYYDGKNKYYADSVKGRFTISRDNSKNTLYLQMNSLRAEDTAVYYCTRGAGYNWFDSWGQGTLVTVSS VL: EIVMTQSPATLSVSPGERATLSCRASQSVRNNLAWYQQKPGQAPRLLIYGVSTRATAFPARFSGSGSGTEFTLTISSLQSEDFAVYYCQQYNNWPLTFGGGTKVEIK | 11 | 7.1 |
| mAb 85 (antibody, V domains shown, VH and VL only) VH: QVQLVQSGAEVKKPGASVKVSCKASGYTVTGYYMHWVRQAPGQGLEWMGWINPNSGGTNFAQNFQGRVTMTRDTSISTFYMDLNRLRSDDTAVYYCARGGAPVSYWFFDLWGRGTLVTVSS VL: DIQMTQSPSSLSASVGDRVTITCRASQSISRYLNWYQQKPGKAPKVLIYNTSSLKSGVPSRFSGSGSGTDFTLTISSLQPEDFGTFYCQQSHSTPFTFGPGTKVDIK | 117 | 102 |
| mAb 66 (antibody, V domains shown, VH and VL only) VH: QVQLVQSGAEVKKPGASVKVSCKASGYTVTGYYMHWVRQAPGQGLEWMGWINPNSGGTNFAQNFQGRVTMTRDTSISTFYMDLSRLRSDDTAVYYCARGGAPVSYWFFDLWGRGTLVTVSS VL: DIQMTQSPSSLSASVGDRVTITCRASQSISRYLNWYQQKPGKAPKVLIYNTSSLKSGVPSRFSGSGSGTDFTLTISSLQPEDFATLYCQQSHSTPFTFGPGTKVDIK | 149 | 125 |
| mAb 79 (antibody, V domains shown, VH and VL only) VH: QVQLVQSGAEVKKPGASVKVSCKASGYIVTGYYMHWVRQAPGHGLEWMGWINPNSGGTNFAQNFQGRVTMTRDTSISTFYMDLNRLTSDDTAVYYCARGGAPVSYWFFDLWGRGTLVTVSS VL: DIQMTQSPSSLSASVGDRVTITCRASQNINSYLNWYHQKPGKAPKVLIYNTSTLKSGVPSRFSGSGSGTYFTLTISSLQPEDFATFYCQQSHSTPFTFGPGTKVDIK | 124 | 74.8 |
| mAb 65 (antibody, V domains shown, VH and VL only) VH: QVQLVESGGGVVQPGRSLRLSCAASGFTFSGYGMHWVRQAPGKGLDWVAIIYYNGNNKYYADSVKGRFTISRDNSKNTLYLQMNSLRAEDTAVYYCARGGGYNWFDPWGQGTLVIVSS VL: not shown | 128 | 101 |
| mAb 86 (antibody, V domains shown, VH and VL only) VH: QVQLAESGGGVVQPGRSLRLSCEASGFTFSGYGMHWVRQAPGKGLDWVAIIYYDGKNKYYADSVKGRFTISRDNSKNTLYLQMNSLRAEDTAVYYCARGGGYNWFDPWGQGTLVTVSS VL: DIQMTQSPSSLSASVGDRVTITCRPSQTISKYLNWYQQKPGKAPKLLIYAASSLQSGVPSRFSGSGSGTDFTLTISSLQPEDFATYYCQQSYITPITFGRGTRLEIK | 82.1 | 91.9 |
| mAb 81 (antibody, V domains shown, VH and VL only) VH: QVQLAESGGGVVQPGRSLRLSCAASGFTFSGYGMHWVRQAPGKGLDWVAIIYYDGKNKYYADSVKGRFTISRDNSKNTLYLQMNSLRAEDTAVYYCARGGGYNWFDPWGQGTLVTVSS VL: DIQMTQSPSSLSASVGDRVTITCRPSQTISNYLNWYQQDPGKAPKLLIYAASSLQSGVPSRFSGSGSGTDFTLTISSLQPEDFATYYCQQSYSTPITFGRGTRLEIK | 101 | 69.6 |
| mAb 83 (antibody, V domains shown, VH and VL only) VH: QVQLVESGGGVVQPGRSLRLSCAASGFTFSGYGMHWVRQAPGKGLDWVAIIYYNGNNKYYADSVKGRFTISRDNSKNTLYLQMNSLRAEDTAVYYCARGGGYNWFDPWGQGTLVIVSS VL: DIQMTQSPSSLSASVGDRVTITCRPSQIIINYLNWYQQKPGKAPKLLIYAASSLQSGVPSRFSGSGSGTDFTLTISSLQPEDFATYYCQQSYSTPFTFGRGTRLEIK | 86.5 | 53.4 |
| mAb 212 (antibody, V domains shown, VH and VL only) VH: EVQLLESGGGLVQPGGSLRLSCAASGFTFSNYAMNWVRQAPGKGLEWVSAISGSRSNTYYADSVKGRFTISRDNSKNTLYLQMNSLRAEDTGVYYCAKGAYSKYPYYYYMDVWGKGTTVTVSS VL: EIVMTQSPATLSLSPGERATLSCRASQSVSSSYLSWYQQKPGQAPRLLIYGASTRAIGIPARFSGSGSGTDFTLTISSLQAEDFAVYYCQQDDNLPWTFGQGTKVEIK | 11 | 22 |

Next, values leading:

| Kd [1] [nM] | Kd [2] [nM] | Binder |
| --- | --- | --- |
| 13 | 8.6 | mAb 213 (antibody, V domains shown, VH and VL only) VH: QEQLVESGGGVVQPGGSLRLSCAASGFTFSGYGMHWVRQAPGKGLEWVAIIWYNGRKTYYAESVKGRFTISRDNSKNTLSLQMNSLRVEDTAVYYCTTGKGYNWFDPWGQGTLVTVSS VL: EIVMTQSPATLSVSPGERATLSCRASQSVSSNLAWYQQKPGQAPRLLIYGASTRATGIPARFSGSGSGTEFTLTISSLQSEDFAVYYCQQFNAWPLTFGGGTKMEIK |
| 19 | 12 | mAb 194 (antibody, V domains shown, VH and VL only) VH: QEQLVESGGGVVQPGGSLRLSCAASGFIFSGYGMHWVRQAPGKGLEWVAIIWYNGRKTYYAESVKGRFTISRDNSKNTLSLQMNSLRVEDTAVYYCTAGQGYNWFDPWGQGTLVTVSS VL: EIVMTQSPATLSVSPGERATLSCRASQSVSSNLAWYQQKPGQAPRLLIYGASTRATGIPARFSGSGSGTEFTLTISSLQSEDFAVYYCQQFNAWPLTFGGGTKMEIK |
| 11 | 6.2 | mAb 225 (antibody, V domains shown, VH and VL only) VH: QEQLVESGGGVVQPGGSLRLSCAASGFKFSGYGMHWVRQAPGKGLEWVAIIWYNGRKTYYAESVKGRFTISRDNSKNTLSLQMNRLRVEDTAVYYCTAGQGYNWFDPWGQGTLVTVSS VL: EIVMTQSPATLSVSPGERATLSCRASQSVSSNLAWYQQKPGQAPRLLIYGASTRATGIPARFSGSGSGTEFTLTISSLQSEDFAVYYCQQFNAWPLTFGGGTKMEIK |
| 10 | 6.3 | mAb 219 (antibody, V domains shown, VH and VL only) VH: QEQLVESGGGVVQPGGSLRLSCAASGFMFSGYGMHWVRQAPGKGLEWVAIIWYNGRKTYYTESVKGRFTISRDNSKNTLSLQMNSLRVEDTAVYYCTAGQGYNWFDPWGQGTLVTVSS VL: EIVMTQSPATLSVSPGERATLSCRASQSVSSNLAWYQQKPGQAPRLLIYGASTRATGIPARFSGSGSGTEFTLTISSLQSEDFAVYYCQQFNAWPLTFGGGTKMEIK |
| 16 | 11 | mAb 220 (antibody, V domains shown, VH and VL only) VH: QEQLVESGGGVVQPGGSLRLSCVASGFTFSGYGMHWVRQAPGKGLEWVAIIWYNGRKTYYAESVKGRFTISRDNSKNTLSLQMNSLRVEDTAVYYCTTGKGYNWFDPWGQGTLVTVSS VL: EIVMTQSPATLSVSPGERATLSCRASQSVSSNLAWYQQKPGQAPRLLIYGASTRATGIPARFSGSGSGTEFTLTISSLQSEDFAVYYCQQFNAWPLTFGGGTKMEIK |
| 75 | 32 | mAb 226 (antibody, V domains shown, VH and VL only) VH: QVQLVESGGGVVQPGRSLRLSCAASGFTFSGYGMHWVRQAPGKGLEWVAIIYYNGNNRKYADSVKGRFTISRDNSKNTVSLQMNSLRVEDTAIYYCTRGDGYNWFVTWGQGTLVTVSS VL: EIVMTQSPATLSVSPGERATLSCRASQSISSNLAWYHQKPGQAPRLLIYGASTRATGIPVRFSGSGSGTEFTLTISSLQSEDFALYYCQQYNNWPLTFGGGTKVEIK |
| 6.9 | 9.1 | mAb 196 (antibody, V domains shown, VH and VL only) VH: QEQLVESGGGVVQSGRSLRLSCVASGFKFSGYGMHWVRQAPGKGLEWVAIIYYDGKNKYYADSVKGRFTVSRDNSKNTLYLQMNSLRAEDTAVYYCTRGAGYNWFDSWGQGTLVTVSS VL: EIVMTQSPATLSVSPGERATLSCRASQSVRNNLAWYQQKPGQAPRLLIYGVSTRATAFPARFSGSGSGTEFTLTISSLQSEDFAVYYCQQYNNWPLTFGGGTKVEIK |
| 76 | 34 | mAb 215 (antibody, V domains shown, VH and VL only) VH: QVQLVESGGGVVQPGRSLRLSCAATGFTFSGYGMHWVRQAPGKGLEWVAIIYYNGNNRKYADSVKGRFTISRDNSKNTVSLQMNSLRVEDTAIYYCTRGDGYNWFVTWGQGTLVTVSS VL: EIVMTQSPATLSVSPGERATLSCRASQSVSSNLAWYRQKPGQAPRLLIYGASTRATGIPVRFSGSGSGTEFTLTISSLQSEDFAVYYCQQYNNWPLTFGGGTKVEIK |
| 62 | 34 | mAb 218 (antibody, V domains shown, VH and VL only) VH: QVQLVESGGGVVQPGRSLRLSCAASGFTFSGYGMHWVRQAPGKGLEWVAIIYYNGNNRKYADSVRGRFTISRDNSKNTVSLQMNSLRVEDTAIYYCTRGDGYNWFVTWGQGTLVTVSS VL: EIVMTQSPATLSVSPGERATLSCRASQSVSSNLAWYYQKPGQAPRLLIYGASTRATGIPVRFSGSGSGTEFTLTISSLQSEDFAVYYCQQYNNWPLTFGGGTKVEIK |
| 13 | 25 | mAb 214 (antibody, V domains shown, VH and VL only) VH: EVQLLESGGGLVQPGGSLRLSCAASGFTFSNYAMNWVRQAPGKGLEWVSAISGSRSNTYYADSVKGRFTISRDNSKNTLYLQMNSLRAEDTAVYYCAKGAYSKYPYYYYMDVWGKGTTVTVSS VL: EIVMTQSPATLSLSPGERATLSCRASQSVSSSYLSWYQQKPGQAPRLLIYGASTRAIGIPARFSGSGSGTDFTLTISSLQAEDFAVYYCQQDDNLPWTFGQGTKVEIK |
